Measurements taken from patent publication US20120076762A1, “INDUCED PLURIPOTENT STEM CELL GENERATION USING TWO FACTORS AND P53 INACTIVATION” (THE SALK INSTITUTE FOR BIOLOGICAL STUDIES, priority 2009, published 2012).

B1: c-Myc: c-Myc retrovirus (pMXs) added to Oct4/Sox2/Klf4 as fourth factor (protein, UniProt P01108 1-454, looked up)
Myc proto-oncogene protein: MDFLWALETPQTATTMPLNVNFTNRNYDLDYDSVQPYFICDEEENFYHQQQQSELQPPAPSEDIWKKFELLPTPPLSPSRRSGLCSPSYVAVATSFSPREDDDGGGGNFSTADQLEMMTELLGGDMVNQSFICDPDDETFIKNIIIQDCMWSGFSAAAKLVSEKLASYQAARKDSTSLSPARGHSVCSTSSLYLQDLTAAASECIDPSVVFPYPLNDSSSPKSCTSSDSTAFSPSSDSLLSSESSPRASPEPLVLHEETPPTTSSDSEEEQEDEEEIDVVSVEKRQTPAKRSESGSSPSRGHSKPPHSPLVLKRCHVSTHQHNYAAPPSTRKDYPAAKRAKLDSGRVLKQISNNRKCSSPRSSDTEENDKRRTHNVLERQRRNELKRSFFALRDQIPELENNEKAPKVVILKKATAYILSIQADEHKLTSEKDLLRKRREQLKHKLEQLRNSGA
B2: Bcl-2: mouse Bcl-2 cDNA overexpressed from HIV pBOBI lentiviral vector; BAX antagonist (protein, UniProt P10417 1-236, looked up)
Apoptosis regulator Bcl-2: MAQAGRTGYDNREIVMKYIHYKLSQRGYEWDAGDADAAPLGAAPTPGIFSFQPESNPMPAVHRDMAARTSPLRPLVATAGPALSPVPPVVHLTLRRAGDDFSRRYRRDFAEMSSQLHLTPFTARGRFATVVEELFRDGVNWGRIVAFFEFGGVMCVESVNREMSPLVDNIALWMTEYLNRHLHTWIQDNGGWDAFVELYGPSMRPLFDFSWLSLKTLLSLALVGACITLGAYLGHK

Key:
[1] = tested on: Mouse embryonic fibroblasts (MEFs); test: Reprogramming of mouse embryonic fibroblasts to iPS cells (Nanog-positive colonies); format: cell-based; conditions: MEFs; for Reprogramming efficiency (Nanog-positive colonies / infected cells): 3F (Oct4/Sox2/Klf4), d12-14, error = s.d.; for Direction and grade of change in reprogramming efficiency (arrows): 3F, vs control
Source text: VSV-G viruses were produced in HEK293T cells. For pMX-based and pMSCV-based retroviruses, vectors were transfected using CaPO4 or lipofectamin, following the manufacturers' directions. One day after transfection, culture medium was changed to new medium. For lentivirus, pBOBI-based^34 or pLVTHM-based^37 vectors were transfected by Lipofectamine™ 2000 (Invitrogen) according to the manufacturer's protocol. Six hours after transfection, the DNA-lipofectamine-complex was removed and the medium was replaced the next day. Two days after transfection, the supernatant containing viruses was collected and filtered through a 0.45 μm filter. Mouse iPS cells were induced as previously described^38,39. Briefly, mouse embryonic fibroblasts (passage 3 to 5) were infected (day 0) with pMX-based retroviruses together with pLVTHM-based lentivirus for shRNAs or pBOBI-based lentivirus for Bcl-2. On day 2, cells were passed onto new gelatin-coated plates. Medium was changed every 2 days. On day 12 to 14, cells were fixed for immunofluorescence study. For the Nutlin3a experiments, cells were treated starting from day 4. Reprogramming of human embryonic fibroblasts (IMR90) was done as previously described^2′^3. Briefly, IMR90 fibroblasts (passage 7 to 9) were infected (day 0) with pMSCV-based retroviruses+pLVTHM-based lentiviruses for p53 shRNA. On day 4 or 5, cells were passed onto feeder MEFs. Medium was changed every day. Around 3 weeks after infection, cells were fixed for immunofluorescence studies. Reprogramming of human primary keratinocytes was carried out essentially as described^6. Cells were co-infected with retroviral supernatants containing 3 or 4 reprogramming factors and p53-DD or GFP at a 1:2 ratio. To assess the reprogramming efficiency, cells were trypsinized 3 days after retroviral infection and 10^4 cells were plated onto 6-cm tissue culture dishes on top of irradiated human foreskin fibroblasts with hES cell medium.
The number of Nanog-positive colonies was calculated after immunostaining at d12-14. The total number of Nanog-positive colonies was divided by the number of infected cells. Error numbers indicate s.d. The term “s.d.” refers in the customary sense to standard deviation. The term “s.e.” refers in the customary sense to standard error. Student's t-tests were performed for statistical analysis. p=0.007 (p53-shRNA vs mock, n=4 in each), p=0.0006 (p53−/− vs WT, n=3 in each), p=0.009 (p21-shRNA vs mock, n=4 in each), p=0.0005 (Arf-shRNA vs mock, n=3 in each), p=0.028 (Arf/Ink4a-shRNA vs mock, n=3 in each), p=0.010 (Ctl(solvent) vs Nutlin-3(10 μM), n=3 in each), p=0.045 (3SA/3SA vs WT, n=3 in each), p=0.022 (Bcl-2 vs mock, n=4 in each), and p=0.012 (c-Myc versus mock, n=4 in each).

MEFs = test: TUNEL staining of apoptotic cells in factor-infected MEFs; format: cell-based, mouse; conditions: 2-F, 3-F and 4-F experiments, five days after infection
Procedure: FIG. 13: Bcl-2 increased the efficiency of reprogramming. (FIG. 13a) MEFs were infected by retroviruses encoding 4 transcription factors (Oct4/Sox2/Klf4/c-Myc), 3 factors (Oct4/Sox2/Klf4), or 2 factors (Oct4/Sox2) with lentivirus encoding Bcl-2. Five days after infection, TUNEL-staining was performed. The percentage of apoptotic cells was analyzed (using at least five independent panels) and represented graphically. Error bars indicate s.d. (FIG. 13b) MEFs were infected by retroviruses encoding 3 factors (Oct4/Sox2/Klf4) in combination with mock or Bcl-2 expressing lentivirus. The fold change in the number of Nanog-positive colonies compared to mock (n=3) is shown. Error bars indicate s.d (n=3).

Row | Molecule | Reprogramming efficiency (Nanog-positive colonies / infected cells) [1] | Direction and grade of change in reprogramming efficiency (arrows) [1] | Effect on apoptosis (TUNEL) (MEFs) | Fold increase in reprogramming / Nanog-positive colony formation vs control ([1]; 3-F) [fold]
1 | B1 | 0.517 ± 0.264% vs 0.114 + 0.054% | ↑↑ |  | 
2 | B2 | 0.268 ± 0.117% vs 0.100 + 0.062% | ↑↑ | suppressed apoptosis | 4
